Assay results from US20140178935A1 (AVEO PHARMACEUTICALS, published 2014).

Tests used:
[1] = target: T1, recombinant human HGF (R&D Systems, Catalog No. 294-HGN-025) (human, UniProt P14210 32-728); assay: SPR, captured antibody, HGF injected, 25 C
T1 construct: Mature HGF is a disulfide-linked heterodimer of alpha and beta chain cut from one precursor; also called rhHGF (R&D Systems); rhHGF
Procedure: Mouse anti-human immunoglobulins (Jackson Labs, Catalog No. 209-005) or rabbit anti-mouse immunoglobulins (BIAcore, Catalog No. BR-1005-14) were immobilized on carboxymethylated dextran CM4 sensor chips (BIAcore, Catalog No. BR-1006-68) by amine coupling (BIAcore, Catalog No. BR-1000-50) using a standard coupling protocol according to manufacturer's instructions. […] The analyses were performed at 25° C. and 37° C. using PBS (GIBCO, Catalog No. 14040-133) containing 0.05% surfactant P20 (BIAcore, Catalog No. BR-1000-54), and 2 mg/mL BSA (EMD, Catalog No. 2930) as running buffer.
The antibodies were captured in an individual flow cell at a flow rate of […]. Injection time was variable for each antibody to yield approximately 20 RU of antibody captured for each cycle. […] The dissociation phase was monitored for 15 or 90 minutes, depending on concentration. The surface of mouse anti-human immunoglobulins sensor chips was then regenerated with 10 mM Glycine-HCl, pH 2.2 (BIAcore, Catalog No. BR-1003-54) injected for 3 minutes at a flow rate of 60 μL/min before another cycle was initiated. The surface of rabbit anti-mouse immunoglobulins sensor chips was regenerated with 10 mM Glycine-HCl, pH 1.7 (BIAcore, Catalog No. BR-1003-54) injected for 3 minutes at a flow rate of 60 μL/min before another cycle was initiated.
Kinetic parameters were determined using the kinetic function of the BIAevaluation software with reference subtraction.

[2] = target: T1, recombinant human HGF (R&D Systems, …); assay: SPR, captured antibody, HGF injected, 25 C; remark: listed apart in the source
Procedure: Mouse anti-human immunoglobulins (Jackson Labs, Catalog No. 209-005) were immobilized on carboxymethylated dextran CM4 sensor chips (BIAcore, Catalog No. BR-1006-68) by amine coupling (BIAcore, Catalog No. BR-1000-50) using a standard coupling protocol according to manufacturer's instructions. The analyses were performed at 25° C. using PBS (GIBCO, Catalog No. 14040-133) containing 0.05% surfactant P20 (BIAcore, Catalog No. BR-1000-54), and 2 mg/mL BSA (EMD, Catalog No. 2930).
(§1) The antibodies were captured in an individual flow cell at a flow rate of 10 μL/min. Injection time was variable for each antibody to yield approximately 20 RU of antibody captured for each cycle. […] The dissociation phase was monitored for 15 or 90 minutes, depending on concentration. The surface then was regenerated with 10 mM Glycine-HCl, pH 2.2 (BIAcore, Catalog No. BR-1003-54) injected for 3 minutes at a flow rate of 60 μL/min before another cycle was initiated.
Kinetic parameters were determined using the kinetic function of the BIAevalutation™ software with reference subtraction.

[3] = target: T1, recombinant human HGF (R&D Systems, …); assay: SPR (BIAcore T100), antibody captured on mouse anti-human immunoglobulin CM4 chip, HGF 1.88, 3.75 and 7.5 nM injected, 25 C; three independent experiments
Procedure: Antigen-binding affinity and kinetics of interaction were assessed by surface plasmon resonance technology using a BIAcore T100 instrument. Mouse anti-human immunoglobulins (Jackson ImmunoResearch Labs, 209-005-098) were immobilized on carboxymethylated dextran CM4 sensor chips (BIAcore, Catalog No. BR-1005-34) by amine coupling (BIAcore, Catalog No. BR-1000-50) using a standard coupling protocol according to manufacturer's recommendations. The analyses were performed at 25° C. using PBS (GIBCO, Catalog No. 14040-133) containing 0.05% surfactant P20 (BIAcore, Catalog No. BR-1000-54), 2 mg/mL BSA (EMD, Catalog No. 2930) and 10 mg/mL CM-Dextran Sodium salt (Fluka, Catalog No. 86524) as running buffer.
as §1, with “on” for “in an”, “2.0” for “2.2”, “BR-1003-55)” for “BR-1003-54)”, “initiated. […] Determination of kinetic parameters was achieved using the kinetic function of the BIAevalutation software with reference subtraction.” for “initiated.”

T1 sequence (P14210 32-728 limits assumed): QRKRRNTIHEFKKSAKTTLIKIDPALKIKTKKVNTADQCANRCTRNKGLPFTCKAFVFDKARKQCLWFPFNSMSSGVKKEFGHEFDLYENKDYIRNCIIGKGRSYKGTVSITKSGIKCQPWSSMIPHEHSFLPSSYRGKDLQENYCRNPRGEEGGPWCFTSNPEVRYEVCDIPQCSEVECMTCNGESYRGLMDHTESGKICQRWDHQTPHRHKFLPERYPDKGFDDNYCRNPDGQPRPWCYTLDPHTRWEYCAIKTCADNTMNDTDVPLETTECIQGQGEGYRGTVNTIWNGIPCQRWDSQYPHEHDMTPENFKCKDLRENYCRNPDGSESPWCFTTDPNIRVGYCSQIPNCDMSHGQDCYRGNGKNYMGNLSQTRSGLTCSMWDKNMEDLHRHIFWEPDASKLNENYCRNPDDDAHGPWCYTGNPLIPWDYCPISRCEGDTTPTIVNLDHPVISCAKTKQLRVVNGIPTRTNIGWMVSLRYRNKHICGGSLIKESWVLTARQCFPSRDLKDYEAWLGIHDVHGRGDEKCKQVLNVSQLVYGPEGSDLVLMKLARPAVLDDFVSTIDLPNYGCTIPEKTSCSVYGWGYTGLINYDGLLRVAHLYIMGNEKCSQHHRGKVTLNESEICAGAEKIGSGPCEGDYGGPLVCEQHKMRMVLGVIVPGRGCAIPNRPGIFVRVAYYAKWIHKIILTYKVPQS

- Kd [1]: 8.1 pM
- koff [1]: 1.7e-05 s⁻¹
- kon [1]: 2e+06 M⁻¹ s⁻¹
- Kd [2]: 8.1 pM
- koff [2]: 1.7e-05 s⁻¹
- kon [2]: 2e+06 M⁻¹ s⁻¹
- Kd [3]: 8.1 pM
- koff [3]: 1.7e-05 s⁻¹
- kon [3]: 2e+06 M⁻¹ s⁻¹
B1: sh2B8-9 (G1m(17,1)) = hu2B8 Hv5-51.1 + IgG1 constant region (G1m(17,1) allotype) plus hu2B8 Kv1-39.1 + Kappa constant region (Km(3) allotype, allele 2) (antibody)
heavy: not shown
light: DIQMTQSPSSLSASVGDRVTITCKASENVVSYVSWYQQKPGKAPKLLIYGASNRNTGVPSRFSGSGSGTDFTLTISSLQPEDFATYYCGQSYNYPYTFGQGTKLEIKRTVAAPSVFIFPPSDEQLKSGTASVVCLLNNFYPREAKVQWKVDNALQSGNSQESVTEQDSKDSTYSLSSTLTLSKADYEKHKVYACEVTHQGLSSPVTKSFNRGEC
